Laboratory results taken from US10793872B2, “HPPD variants and methods of use” (Bayer CropScience AG, priority 2012, dated 2020).
Like-named read-outs stand apart in the source and are kept apart here.

What was measured:
[1] = target: T1, Pseudomonas fluorescens HPPD variant CO212f3, SEQ ID NO:10 (Pseudomonas sp., UniProt P80064, A339V/E334G/G335W); assay: biochemical; conditions: read-out: pI50 (converted)
T1 construct: CO212f3; […]; Ala + His6 directly after the start Met (N); made in house; host or cells: E. coli
T1 sequence (P80064 other isoform, or with tags, fused parts or gaps with the stated changes): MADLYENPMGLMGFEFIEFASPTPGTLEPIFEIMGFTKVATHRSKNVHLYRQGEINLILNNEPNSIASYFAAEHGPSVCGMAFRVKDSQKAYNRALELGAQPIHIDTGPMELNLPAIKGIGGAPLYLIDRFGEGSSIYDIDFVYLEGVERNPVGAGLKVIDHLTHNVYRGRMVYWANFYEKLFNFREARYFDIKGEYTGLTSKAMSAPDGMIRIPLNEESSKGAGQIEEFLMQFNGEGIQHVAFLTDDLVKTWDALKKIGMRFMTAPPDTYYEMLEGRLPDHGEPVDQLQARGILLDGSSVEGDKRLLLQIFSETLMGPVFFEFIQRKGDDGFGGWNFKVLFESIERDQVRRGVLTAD

[2] = target: T2, Pseudomonas fluorescens HPPD variant CO210d10, SEQ ID NO:9 (Pseudomonas sp., UniProt P80064, E334P/G335S/K338T); assay: biochemical; conditions: read-out: pI50 (converted)
T2 construct: CO210d10; […]; Ala + His6 directly after the start Met (N); made in house; host or cells: E. coli
T2 sequence (P80064 other isoform, or with tags, fused parts or gaps with the stated changes): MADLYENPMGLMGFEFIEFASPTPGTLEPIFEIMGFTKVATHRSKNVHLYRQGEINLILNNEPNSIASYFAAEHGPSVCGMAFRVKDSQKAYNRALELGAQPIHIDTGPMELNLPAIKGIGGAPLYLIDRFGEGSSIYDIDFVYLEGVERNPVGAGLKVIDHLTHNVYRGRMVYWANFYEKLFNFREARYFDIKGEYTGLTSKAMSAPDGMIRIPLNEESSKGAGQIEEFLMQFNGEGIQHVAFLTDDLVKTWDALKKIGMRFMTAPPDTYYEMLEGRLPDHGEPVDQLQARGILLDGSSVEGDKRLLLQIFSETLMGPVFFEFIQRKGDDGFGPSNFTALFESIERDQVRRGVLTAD

[3] = target: Pseudomonas aeruginosa (strain ATX22717) HPPD Axmi305H, native, SEQ ID NO:57 (Pseudomonas aeruginosa, UniProt Q9I576); assay: HPPD coupling assay, Axmi305H
Pseudomonas aeruginosa (strain ATX22717) HPPD Axmi305H, native, SEQ ID NO:57, sequence (Q9I576 whole entry): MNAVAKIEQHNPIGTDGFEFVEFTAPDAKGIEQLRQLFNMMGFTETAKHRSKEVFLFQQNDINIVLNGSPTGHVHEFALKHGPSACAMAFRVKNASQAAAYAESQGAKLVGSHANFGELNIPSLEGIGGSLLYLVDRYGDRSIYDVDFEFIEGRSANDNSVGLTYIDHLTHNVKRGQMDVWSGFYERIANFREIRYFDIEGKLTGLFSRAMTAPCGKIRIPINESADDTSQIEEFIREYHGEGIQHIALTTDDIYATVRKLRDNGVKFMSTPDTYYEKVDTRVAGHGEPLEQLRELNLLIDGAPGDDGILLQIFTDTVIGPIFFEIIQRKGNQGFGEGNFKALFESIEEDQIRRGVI

[4] = target: T1, Pseudomonas fluorescens HPPD variant CO212f3, SEQ ID NO:10; assay: biochemical
[5] = target: T3, Pseudomonas fluorescens HPPD variant PfHPPDEvo36 (serine for glutamic acid at 335, serine for tryptophan at 336, threonine for lysine at 339, glutamine for alan (Pseudomonas sp., UniProt P80064, A339Q/E334S/G335S/K338T)); assay type: biochemical
T3 construct: made in house; host or cells: E. coli (DH5alpha for library screening)
Procedure: The theoretical diversity of this library was 640. Screening was carried out as described in Example 3.

[6] = target: T4, Pseudomonas fluorescens HPPD variant C024H11, SEQ ID NO:5 (Pseudomonas sp., UniProt P80064, G335W/P214L); assay: biochemical
T4 construct: C024H11; […]; made in house; host or cells: E. coli (DH5alpha for library screening)
T4 sequence (P80064 other isoform, or with tags, fused parts or gaps with the stated changes): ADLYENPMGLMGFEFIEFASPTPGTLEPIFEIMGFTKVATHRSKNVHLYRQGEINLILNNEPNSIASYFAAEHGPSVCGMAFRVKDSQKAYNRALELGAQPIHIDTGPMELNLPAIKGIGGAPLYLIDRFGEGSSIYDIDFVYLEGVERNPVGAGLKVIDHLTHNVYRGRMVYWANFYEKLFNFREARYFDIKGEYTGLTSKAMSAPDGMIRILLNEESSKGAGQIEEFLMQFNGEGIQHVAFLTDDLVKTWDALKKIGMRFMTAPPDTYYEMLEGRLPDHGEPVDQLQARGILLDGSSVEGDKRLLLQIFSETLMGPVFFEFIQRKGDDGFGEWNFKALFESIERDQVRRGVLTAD

[7] = target: Pseudomonas fluorescens HPPD variant PfHPPDEvo40, SEQ ID NO:8 (Pseudomonas sp., UniProt P80064, A339E/E334P/G335S); assay: HPPD inhibition, HPLC based assay, PfHPPDEvo40
[8] = target: Pseudomonas aeruginosa HPPD Axmi305H (SEQ ID NO:57) variant Axmi305H-Evo41 (Pseudomonas aeruginosa, UniProt Q9I576, A342Q/E337P/G338W/K341A); assay: biochemical
Pseudomonas aeruginosa HPPD Axmi305H (SEQ ID NO:57) variant Axmi305H-Evo41, sequence (Q9I576 whole entry E337P/G338W/K341A/A342Q): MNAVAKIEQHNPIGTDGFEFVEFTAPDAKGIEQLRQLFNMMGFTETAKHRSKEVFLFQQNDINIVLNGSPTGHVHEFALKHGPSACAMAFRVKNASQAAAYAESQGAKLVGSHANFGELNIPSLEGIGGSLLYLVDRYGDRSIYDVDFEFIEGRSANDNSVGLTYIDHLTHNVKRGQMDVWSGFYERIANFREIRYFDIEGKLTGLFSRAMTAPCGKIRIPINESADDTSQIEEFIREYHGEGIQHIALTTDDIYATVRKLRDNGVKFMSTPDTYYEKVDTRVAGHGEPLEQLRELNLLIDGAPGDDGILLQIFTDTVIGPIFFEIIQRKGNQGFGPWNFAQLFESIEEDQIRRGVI
Procedure: This method is called the HGD assay.
The mutants generated by this approach were transformed into B121-DE3* cells and grown to saturation in LB media. […] By this method, active HPPD enzyme will produce a brown pigment after approximately 24 hours of growth on plates.

[9] = target: T5, Pseudomonas fluorescens HPPD variant PfHPPDEvo36 (serine for glutamic acid at 335, serine for tryptophan at 336, threonine for lysine at 339, glutamine for alanine at 340 relative to PfG336W), SEQ ID NO:7 (Pseudomonas sp., UniProt P80064, A339Q/E334S/G335S/K338T); assay: biochemical
T5 construct: made in house; host or cells: E. coli (DH5alpha for library screening)

HPPD [10] = conditions: reaction stopped after 24 min
Procedure: Kon=K1 equals the association rate constant of the […] and Koff=K−1 equals the rate constant of the enzyme-inhibitor complex dissociation. Ki defines the inhibition constant. For the determination of the specific activity of the enzymes, samples were incubated, and the reaction was stopped after 24 min. The specific activity was estimated by μg of protein.
For the determination of the specific activity of the enzymes, samples were incubated, and the reaction was stopped after 24 min. The specific activity was estimated by μg of protein.
Samples were incubated, and the reaction was stopped after 24 min. The specific activity was estimated by μg of protein.

Soybean plants [11] = assay: Spray test of soybean plants expressing HPPD for tolerance to tembotrione; assay type: in vivo; conditions: tembotrione (LAUDIS SC) 184 grams/hectare, one week after spraying; for Number of plants rated +: + = completely bleached; for Number of plants rated ++ or +++: slight tolerance or very little effect
Procedure: Soybean plants expressing an HPPD inhibitor tolerant enzyme of the present invention, along with a gene conferring tolerance to glyphosate and a gene conferring tolerance to glufosinate, were tested for tolerance to tembotrione. A DeVries Tracker Sprayer was calibrated prior to each spraying. The chemical formulation used for tembotrione testing was LAUDIS® SC formulation. Spray tests were conducted using 184 grams/hectare; 34.5% TBT. Tolerance was evaluated one week after spraying. A rating of “+” was assigned to plants that were completely bleached in the actively growing tissue. A rating of “++” was assigned to plants having slight tolerance, i.e., the newest plant tissues had some green and are not bleached completely. A rating of “+++” was assigned to plants showing very little effect from spray, i.e., some chlorosis or very slight bleaching was present.

[12] = tested on: E. coli cells expressing HPPDs; assay: Plating whole E. coli cells expressing HPPDs on media containing HPPD inhibitors; assay type: cell-based; conditions: whole E. coli cells on plates with 250 uM inhibitor, 18 hours at 37 degrees C
Procedure: Variants were also tested by plating whole E. coli cells expressing HPPDs on media containing various HPPD inhibitors. For these experiments, DH5alpha cells containing HPPD expressing plasmids were grown in LB media+kanamycin until an OD600 nm=0.5 was reached. Serial dilutions of cells were prepared in LB media+kanamycin corresponding to OD600 values of 0.016, 0.008, 0.004, and 0.002. Ten microliters of each dilution were plated in triplicate on plates containing no HPPD inhibitor, 250 uM TBT, 250 uM DKN and 250 uM mesotrione (MST). Plates were incubated for 18 hours at 37 degrees C.

HPPD [13] = conditions: Table 14
Soybean plants [14] = assay: Field trials of soybean events expressing HPPD, post-emergent HPPD inhibitor application, phytotoxicity; assay type: in vivo; conditions: for events exhibiting less than or equal to 20% average phytotoxicity: T1 events, evaluated after 7 days; for events exhibiting less than or equal to 20% average phytotoxicity / events exhibiting less than or equal to 25% maximum phytotoxicity: post-emergent tembotrione 200 g ai/ha; for events exhibiting less than or equal to 25% maximum phytotoxicity: field trial United States (Minnesota); for events exhibiting less than or equal to 25% maximum phytotoxicity / events exhibiting less than or equal to 18% maximum phytotoxicity: T2; for events exhibiting less than or equal to 18% maximum phytotoxicity: field trial in Argentina, post-emergent isoxaflutole 210 g ai/ha
Source text: The plants were sprayed at the v2-v3 stage with 1× glufosinate. Five days after treatment with glufosinate, the surviving plants were sprayed with 2× tembotrione, 2× mesotrione, or 2× isoxaflutole and evaluated for phytotoxicity after 7 days.

HPPD [15] = tested on: HPPD
Procedure: For Km and Vmax value determinations the initial rates of the HPPD reaction at different substrate concentrations were determined from plots of HGA formed versus time and fitted to the Michaelis-Menten equation for unireactant enzymes using the ID Business Solutions Ltd. (www.idbs.com) XLfit software suite.
In below given Table 1, “Km” (Michaelis-Menten constant) means the kinetic parameter that is used to characterize an enzyme, and it is defined as the concentration of substrate that permits half maximal rate of the reaction. Km is further defined as the substrate concentration at which the reaction rate reaches half of its maximum value (Vmax/2) where Vmax has the meaning of being the maximum velocity of the reaction.

[16] = PfHPPDEvo36 extract titrated on 250 uM inhibitor
[17] = spectrophotometric method, Table 6

Molecule: CS(=O)(=O)c1ccc(C(=O)C2C(=O)CCCC2=O)c([N+](=O)[O-])c1 [Mesotrione, 2-[4-(methylsulfonyl)-2-nitrobenzoyl]-1,3-cyclohexanedione]
- IC50 [1]: 3.98 µM
- IC50 [2]: 2 µM
- IC50 [3]: 0.2 µM

Molecule: CS(=O)(=O)c1ccc(C(=O)C2C(=O)CCCC2=O)c(Cl)c1COCC(F)(F)F [Tembotrione, 2-[2-chloro-4-(methylsulfonyl)-3-[(2,2,2,-tri-fluoroethoxy)methyl]benzoyl]-1,3-cyclo-hexanedione]
- IC50 [4]: 15.8 µM
- improved tolerance compared to PfG336W [5, 16]: 16 ×
- improved tolerance compared to PfHPPDEvo33 [5, 16]: 4 ×
- IC50 [6]: 15.8 µM
- IC50 [7]: 10 µM

Molecule: CS(=O)(=O)c1cc(C(F)(F)F)ccc1C(=O)C(C#N)C(=O)C1CC1 (centres unmarked) [Diketonitrile, 2-cyano-3-cyclopropyl-1-(2-methylsulphonyl-4-trifluoromethylphenyl)-propane-1,3-dione]
- IC50 [1]: 20 µM
- IC50 [2]: 50.1 µM
- IC50 [8]: 10 µM
- IC50 [9]: 31.6 µM
- improved tolerance compared to PfG336W [5]: 16 ×
- improved tolerance compared to PfHPPDEvo33 [5]: 4 ×
- IC50 [6]: 100 µM

B1: PfHPPDEvo40: HPPD variant SEQ ID NO:8 (protein)
chain: MADLYENPMGLMGFEFIEFASPTPGTLEPIFEIMGFTKVATHRSKNVHLYRQGEINLILNNEPNSIASYFAAEHGPSVCGMAFRVKDSQKAYNRALELGAQPIHIDTGPMELNLPAIKGIGGAPLYLIDRFGEGSSIYDIDFVYLEGVERNPVGAGLKVIDHLTHNVYRGRMVYWANFYEKLFNFREARYFDIKGEYTGLTSKAMSAPDGMIRIPLNEESSKGAGQIEEFLMQFNGEGIQHVAFLTDDLVKTWDALKKIGMRFMTAPPDTYYEMLEGRLPDHGEPVDQLQARGILLDGSSVEGDKRLLLQIFSETLMGPVFFEFIQRKGDDGFGPSNFKELFESIERDQVRRGVLTAD
modifications: HPPD mutant - PfHPPDEvo40
- Specific activity (HPPD [10]; [17]): 0.42 Delta Absorbance/24 min/μg pro
- Percent ++ or +++ (Soybean plants [11]): 31.4%
- Number of plants rated + (Soybean plants [11]): 60
- Number of plants rated ++ or +++ (Soybean plants [11]): 65
- tolerance to TBT and MST compared to PfG336W [12]: improved tolerance

B2: PfHPPDEvo41: HPPD variant SEQ ID NO:16 (protein)
chain: MADLYENPMGLMGFEFIEFASPTPGTLEPIFEIMGFTKVATHRSKNVHLYRQGEINLILNNEPNSIASYFAAEHGPSVCGMAFRVKDSQKAYNRALELGAQPIHIDTGPMELNLPAIKGIGGAPLYLIDRFGEGSSIYDIDFVYLEGVERNPVGAGLKVIDHLTHNVYRGRMVYWANFYEKLFNFREARYFDIKGEYTGLTSKAMSAPDGMIRIPLNEESSKGAGQIEEFLMQFNGEGIQHVAFLTDDLVKTWDALKKIGMRFMTAPPDTYYEMLEGRLPDHGEPVDQLQARGILLDGSSVEGDKRLLLQIFSETLMGPVFFEFIQRKGDDGFGPWNFAQLFESIERDQVRRGVLTAD
modifications: HPPD mutant - PfHPPDEvo41
- Specific activity (HPPD [10]; [17]): 0.44 Delta Absorbance/24 min/μg pro
- Km (HPPD [13]): 336 µM
- Percent ++ or +++ (Soybean plants [11]): 32.75%
- Number of plants rated + (Soybean plants [11]): 412
- Number of plants rated ++ or +++ (Soybean plants [11]): 279
- tolerance to TBT and MST compared to PfG336W [12]: improved tolerance
- events exhibiting less than or equal to 20% average phytotoxicity (Soybean plants [14]): Nine out of 18
- events exhibiting less than or equal to 25% maximum phytotoxicity (Soybean plants [14]): 7 out of 7
- events exhibiting less than or equal to 18% maximum phytotoxicity (Soybean plants [14]): 5 out of 10
- Km (HPPD [15]; Table 9, same values as Table 5): 336 µM
- Km (HPPD [15]; read-out: HPP Km, substrate HPP, Table 5): 336 µM
- HPP Kcat (HPPD [15]; substrate HPP, Table 5): 1.1 s⁻¹

B3: PfG336W: Pseudomonas fluorescens HPPD mutant, glycine at position 336 replaced by tryptophan, SEQ ID NO:2 (protein)
chain: MADLYENPMGLMGFEFIEFASPTPGTLEPIFEIMGFTKVATHRSKNVHLYRQGEINLILNNEPNSIASYFAAEHGPSVCGMAFRVKDSQKAYNRALELGAQPIHIDTGPMELNLPAIKGIGGAPLYLIDRFGEGSSIYDIDFVYLEGVERNPVGAGLKVIDHLTHNVYRGRMVYWANFYEKLFNFREARYFDIKGEYTGLTSKAMSAPDGMIRIPLNEESSKGAGQIEEFLMQFNGEGIQHVAFLTDDLVKTWDALKKIGMRFMTAPPDTYYEMLEGRLPDHGEPVDQLQARGILLDGSSVEGDKRLLLQIFSETLMGPVFFEFIQRKGDDGFGEWNFKALFESIERDQVRRGVLTAD
modifications: HPPD mutant - PfG336W
- Specific activity (HPPD [10]; Table 1): 0.40 ΔE/24 min μg Protein
- Specific activity (HPPD [10]; [17]): 0.4 Delta Absorbance/24 min/μg pro
- Percent ++ or +++ (Soybean plants [11]): 7.12%
- Number of plants rated + (Soybean plants [11]): 811
- Number of plants rated ++ or +++ (Soybean plants [11]): 160
- events exhibiting less than or equal to 20% average phytotoxicity (Soybean plants [14]): 0 out of 18
- events exhibiting less than or equal to 25% maximum phytotoxicity (Soybean plants [14]): 1 out of 11
- events exhibiting less than or equal to 18% maximum phytotoxicity (Soybean plants [14]): 1 out of 3

B4: PfHPPDEvo36: HPPD variant SEQ ID NO:7; 335 serine, 336 serine, 339 threonine, 340 glutamine relative to PfG336W (protein)
chain: MADLYENPMGLMGFEFIEFASPTPGTLEPIFEIMGFTKVATHRSKNVHLYRQGEINLILNNEPNSIASYFAAEHGPSVCGMAFRVKDSQKAYNRALELGAQPIHIDTGPMELNLPAIKGIGGAPLYLIDRFGEGSSIYDIDFVYLEGVERNPVGAGLKVIDHLTHNVYRGRMVYWANFYEKLFNFREARYFDIKGEYTGLTSKAMSAPDGMIRIPLNEESSKGAGQIEEFLMQFNGEGIQHVAFLTDDLVKTWDALKKIGMRFMTAPPDTYYEMLEGRLPDHGEPVDQLQARGILLDGSSVEGDKRLLLQIFSETLMGPVFFEFIQRKGDDGFGSSNFTQLFESIERDQVRRGVLTAD
modifications: HPPD mutant - PfHPPDEvo36
- Specific activity (HPPD [10]; [17]): 0.82 Delta Absorbance/24 min/μg pro
- Percent ++ or +++ (Soybean plants [11]): 20.45%
- Number of plants rated + (Soybean plants [11]): 47
- Number of plants rated ++ or +++ (Soybean plants [11]): 18
